From PMC314469, “Protein Interaction Networks by Proteome Peptide Scanning” (PLoS Biology, 2004)
Values belong to the binder of their own block, whether it stands above or below them.

Experiments:
Test in all cases: SPOT array
[1] = target: T1, Boi1 SH3 (BOI1_YEAST), P38041
T1 chain: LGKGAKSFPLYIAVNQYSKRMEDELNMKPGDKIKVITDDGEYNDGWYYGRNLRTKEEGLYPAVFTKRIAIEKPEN

[2] = target: T2, Boi2 SH3 (BOI2_YEAST), P39969
T2 chain: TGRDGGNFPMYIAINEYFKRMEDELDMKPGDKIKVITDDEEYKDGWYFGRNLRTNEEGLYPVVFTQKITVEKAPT

[3] = target: T3, Myo5 SH3 (MYO5_YEAST), Q04439
T3 chain: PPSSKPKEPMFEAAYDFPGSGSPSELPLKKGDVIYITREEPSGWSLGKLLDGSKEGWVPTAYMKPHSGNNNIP

[4] = target: T4, Rvs167 SH3 (RV167_YEAST), P39743
T4 chain: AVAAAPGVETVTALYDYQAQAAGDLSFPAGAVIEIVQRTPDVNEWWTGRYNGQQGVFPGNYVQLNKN

[5] = target: Sho1 SH3 (SHO1_YEAST), P40073
Sho1 SH3 (SHO1_YEAST), P40073, sequence (P40073 295-366): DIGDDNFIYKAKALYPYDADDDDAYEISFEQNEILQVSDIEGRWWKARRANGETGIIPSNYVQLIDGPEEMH

[6] = target: T5, Yfr024 SH3 (LSB3_YEAST), P43603
T5 chain: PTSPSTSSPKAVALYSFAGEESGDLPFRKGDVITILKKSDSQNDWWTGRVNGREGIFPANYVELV

[7] = target: T6, Yhr016c SH3 (YSC84_YEAST), P32793
T6 chain: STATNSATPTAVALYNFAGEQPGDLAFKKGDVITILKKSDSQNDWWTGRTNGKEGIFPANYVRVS

B1: YAL060W 292-305 (peptide)
chain: VWGPKPVPFQPMDV
normalised SPOT signal, Boehringer light units (BLU); mean over the file's lines of this peptide [1]: 479
normalised SPOT signal, Boehringer light units (BLU); mean over the file's lines of this peptide [2]: 247
normalised SPOT signal, Boehringer light units (BLU); mean over the file's lines of this peptide [3]: 96.9
normalised SPOT signal, Boehringer light units (BLU); mean over the file's lines of this peptide [4]: 112
normalised SPOT signal, Boehringer light units (BLU); mean over the file's lines of this peptide [5]: 24.2
normalised SPOT signal, Boehringer light units (BLU); mean over the file's lines of this peptide [6]: 1000
normalised SPOT signal, Boehringer light units (BLU); mean over the file's lines of this peptide [7]: 257

B2: YAR007C 257-270 (peptide)
chain: VSKAKLQPAKPQFT
normalised SPOT signal, Boehringer light units (BLU); mean over the file's lines of this peptide [1]: 657
normalised SPOT signal, Boehringer light units (BLU); mean over the file's lines of this peptide [2]: 21.4
normalised SPOT signal, Boehringer light units (BLU); mean over the file's lines of this peptide [3]: 252
normalised SPOT signal, Boehringer light units (BLU); mean over the file's lines of this peptide [4]: 28.5
normalised SPOT signal, Boehringer light units (BLU); mean over the file's lines of this peptide [5]: 61.2
normalised SPOT signal, Boehringer light units (BLU); mean over the file's lines of this peptide [6]: 96.3
normalised SPOT signal, Boehringer light units (BLU); mean over the file's lines of this peptide [7]: 50.6

B6: YFR032C 169-182 (peptide)
chain: VYRRKSIPFAPHQI
normalised SPOT signal, Boehringer light units (BLU); mean over the file's lines of this peptide [1]: 2560
normalised SPOT signal, Boehringer light units (BLU); mean over the file's lines of this peptide [2]: 47
normalised SPOT signal, Boehringer light units (BLU); mean over the file's lines of this peptide [3]: 383
normalised SPOT signal, Boehringer light units (BLU); mean over the file's lines of this peptide [4]: 138
normalised SPOT signal, Boehringer light units (BLU); mean over the file's lines of this peptide [5]: 135
normalised SPOT signal, Boehringer light units (BLU); mean over the file's lines of this peptide [6]: 183
normalised SPOT signal, Boehringer light units (BLU); mean over the file's lines of this peptide [7]: 70.7

B7: YCL055W 187-200 (peptide)
chain: VPIDKKSPFYPGLD
normalised SPOT signal, Boehringer light units (BLU); mean over the file's lines of this peptide [1]: 152
normalised SPOT signal, Boehringer light units (BLU); mean over the file's lines of this peptide [2]: 31.1
normalised SPOT signal, Boehringer light units (BLU); mean over the file's lines of this peptide [3]: 150
normalised SPOT signal, Boehringer light units (BLU); mean over the file's lines of this peptide [4]: 59.1
normalised SPOT signal, Boehringer light units (BLU); mean over the file's lines of this peptide [5]: 20.8
normalised SPOT signal, Boehringer light units (BLU); mean over the file's lines of this peptide [6]: 32.1
normalised SPOT signal, Boehringer light units (BLU); mean over the file's lines of this peptide [7]: 20.7

B8: YDL230W 193-206 (peptide)
chain: VTDIKLTPTDPLVG
normalised SPOT signal, Boehringer light units (BLU); mean over the file's lines of this peptide [1]: 71.3
normalised SPOT signal, Boehringer light units (BLU); mean over the file's lines of this peptide [2]: 0.1
normalised SPOT signal, Boehringer light units (BLU); mean over the file's lines of this peptide [3]: 852
normalised SPOT signal, Boehringer light units (BLU); mean over the file's lines of this peptide [4]: 31
normalised SPOT signal, Boehringer light units (BLU); mean over the file's lines of this peptide [5]: 47.9
normalised SPOT signal, Boehringer light units (BLU); mean over the file's lines of this peptide [6]: 45.9
normalised SPOT signal, Boehringer light units (BLU); mean over the file's lines of this peptide [7]: 10.3

B9: YAL040C 535-548 (peptide)
chain: VRSKRLFPVRPMAT
normalised SPOT signal, Boehringer light units (BLU); mean over the file's lines of this peptide [1]: 362
normalised SPOT signal, Boehringer light units (BLU); mean over the file's lines of this peptide [2]: 0
normalised SPOT signal, Boehringer light units (BLU); mean over the file's lines of this peptide [3]: 504
normalised SPOT signal, Boehringer light units (BLU); mean over the file's lines of this peptide [4]: 309
normalised SPOT signal, Boehringer light units (BLU); mean over the file's lines of this peptide [5]: 244
normalised SPOT signal, Boehringer light units (BLU); mean over the file's lines of this peptide [6]: 2610
normalised SPOT signal, Boehringer light units (BLU); mean over the file's lines of this peptide [7]: 236

B12: YER120W 161-174 (peptide)
chain: VVNEKEVPAEPETQ
normalised SPOT signal, Boehringer light units (BLU); mean over the file's lines of this peptide [1]: 130
normalised SPOT signal, Boehringer light units (BLU); mean over the file's lines of this peptide [2]: 34.2
normalised SPOT signal, Boehringer light units (BLU); mean over the file's lines of this peptide [3]: 100
normalised SPOT signal, Boehringer light units (BLU); mean over the file's lines of this peptide [4]: 12.9
normalised SPOT signal, Boehringer light units (BLU); mean over the file's lines of this peptide [5]: 28.5
normalised SPOT signal, Boehringer light units (BLU); mean over the file's lines of this peptide [6]: 33
normalised SPOT signal, Boehringer light units (BLU); mean over the file's lines of this peptide [7]: 12.7

More lines, now with the values ahead:

normalised SPOT signal, Boehringer light units (BLU); mean over the file's lines of this peptide [1]: 216
normalised SPOT signal, Boehringer light units (BLU); mean over the file's lines of this peptide [2]: 21.2
normalised SPOT signal, Boehringer light units (BLU); mean over the file's lines of this peptide [3]: 814
normalised SPOT signal, Boehringer light units (BLU); mean over the file's lines of this peptide [4]: 31
normalised SPOT signal, Boehringer light units (BLU); mean over the file's lines of this peptide [5]: 59.1
normalised SPOT signal, Boehringer light units (BLU); mean over the file's lines of this peptide [6]: 299
normalised SPOT signal, Boehringer light units (BLU); mean over the file's lines of this peptide [7]: 10.3
B3: YMR118C 67-80 (peptide)
chain: VSQRKKRPISPHLT

normalised SPOT signal, Boehringer light units (BLU); mean over the file's lines of this peptide [1]: 2710
normalised SPOT signal, Boehringer light units (BLU); mean over the file's lines of this peptide [2]: 51.5
normalised SPOT signal, Boehringer light units (BLU); mean over the file's lines of this peptide [3]: 150
normalised SPOT signal, Boehringer light units (BLU); mean over the file's lines of this peptide [4]: 53.2
normalised SPOT signal, Boehringer light units (BLU); mean over the file's lines of this peptide [5]: 43
normalised SPOT signal, Boehringer light units (BLU); mean over the file's lines of this peptide [6]: 479
normalised SPOT signal, Boehringer light units (BLU); mean over the file's lines of this peptide [7]: 88
B4: YPR171W 231-244 (peptide)
chain: VVPERVKPAPPVSR

normalised SPOT signal, Boehringer light units (BLU); mean over the file's lines of this peptide [1]: 126
normalised SPOT signal, Boehringer light units (BLU); mean over the file's lines of this peptide [2]: 10.5
normalised SPOT signal, Boehringer light units (BLU); mean over the file's lines of this peptide [3]: 137
normalised SPOT signal, Boehringer light units (BLU); mean over the file's lines of this peptide [4]: 74
normalised SPOT signal, Boehringer light units (BLU); mean over the file's lines of this peptide [5]: 58.2
normalised SPOT signal, Boehringer light units (BLU); mean over the file's lines of this peptide [6]: 93.9
normalised SPOT signal, Boehringer light units (BLU); mean over the file's lines of this peptide [7]: 8.2
B5: YOR269W 158-171 (peptide)
chain: VTSVKLHPNLPIVF

normalised SPOT signal, Boehringer light units (BLU); mean over the file's lines of this peptide [1]: 28.6
normalised SPOT signal, Boehringer light units (BLU); mean over the file's lines of this peptide [2]: 28
normalised SPOT signal, Boehringer light units (BLU); mean over the file's lines of this peptide [3]: 65
normalised SPOT signal, Boehringer light units (BLU); mean over the file's lines of this peptide [4]: 59.3
normalised SPOT signal, Boehringer light units (BLU); mean over the file's lines of this peptide [5]: 47.4
normalised SPOT signal, Boehringer light units (BLU); mean over the file's lines of this peptide [6]: 662
normalised SPOT signal, Boehringer light units (BLU); mean over the file's lines of this peptide [7]: 208
B10: YGL209W 201-214 (peptide)
chain: VNTPRSVPNSPNDG

normalised SPOT signal, Boehringer light units (BLU); mean over the file's lines of this peptide [1]: 85.7
normalised SPOT signal, Boehringer light units (BLU); mean over the file's lines of this peptide [2]: 30.9
normalised SPOT signal, Boehringer light units (BLU); mean over the file's lines of this peptide [3]: 115
normalised SPOT signal, Boehringer light units (BLU); mean over the file's lines of this peptide [4]: 47.8
normalised SPOT signal, Boehringer light units (BLU); mean over the file's lines of this peptide [5]: 66.9
normalised SPOT signal, Boehringer light units (BLU); mean over the file's lines of this peptide [6]: 42
normalised SPOT signal, Boehringer light units (BLU); mean over the file's lines of this peptide [7]: 14.7
B11: YKL048C 113-126 (peptide)
chain: VVAVKIIPKKPWNA

normalised SPOT signal, Boehringer light units (BLU); mean over the file's lines of this peptide [1]: 33.5
normalised SPOT signal, Boehringer light units (BLU); mean over the file's lines of this peptide [2]: 20
normalised SPOT signal, Boehringer light units (BLU); mean over the file's lines of this peptide [3]: 132
normalised SPOT signal, Boehringer light units (BLU); mean over the file's lines of this peptide [4]: 63.1
normalised SPOT signal, Boehringer light units (BLU); mean over the file's lines of this peptide [5]: 30.6
normalised SPOT signal, Boehringer light units (BLU); mean over the file's lines of this peptide [6]: 44.1
normalised SPOT signal, Boehringer light units (BLU); mean over the file's lines of this peptide [7]: 41.5
B13: YMR140W 298-311 (peptide)
chain: VQIKRADPHFPHDE
